Here are results for four molecules from patent publication US20160355591A1.

Read-outs that look alike come from different tables or passages of the source.

Assay [1] concerns the target human serum complement. The assay is described as follows: cell-based or functional assay.
The target of assay [2] is T1, CD20 on dog lymphocytes and dog lymphoma cells (dog) (UniProt Q3C2E2).
T1 sequence (looked up): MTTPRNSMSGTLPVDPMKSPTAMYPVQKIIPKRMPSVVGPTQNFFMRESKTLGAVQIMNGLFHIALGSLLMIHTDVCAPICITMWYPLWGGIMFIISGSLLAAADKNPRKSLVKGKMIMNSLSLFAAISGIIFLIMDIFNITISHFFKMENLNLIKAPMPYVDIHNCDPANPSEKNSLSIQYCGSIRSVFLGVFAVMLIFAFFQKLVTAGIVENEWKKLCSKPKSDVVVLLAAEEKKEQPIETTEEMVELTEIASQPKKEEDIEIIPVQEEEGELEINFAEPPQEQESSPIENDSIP
Kind of assay: flow cytometry, dog lymphoma aspirate; none 3.24. (In general: In flow cytometry, cells or beads pass a laser one at a time.)

Assay [3] deals with T1, CD20 on dog lymphocytes and dog lymphoma cells (dog). Kind of assay: flow cytometry, dog lymphoma aspirate; none 4.48.
Assay [4] concerns the target T2, CD20 on human cells (human) (UniProt P11836).
T2 sequence (looked up): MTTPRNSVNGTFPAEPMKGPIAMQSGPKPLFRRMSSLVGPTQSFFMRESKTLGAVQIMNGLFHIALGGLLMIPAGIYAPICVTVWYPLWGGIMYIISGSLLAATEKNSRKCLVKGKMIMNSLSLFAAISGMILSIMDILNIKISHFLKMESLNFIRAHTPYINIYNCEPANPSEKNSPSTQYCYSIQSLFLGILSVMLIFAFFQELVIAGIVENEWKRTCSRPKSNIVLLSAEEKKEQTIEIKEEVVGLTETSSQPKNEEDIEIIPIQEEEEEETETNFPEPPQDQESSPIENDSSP
Kind of assay: indirect FACS, Raji cells, FITC-GAH Fc 2nd Ab; none 6.8.

In assay [5] the target is T2, CD20 on human cells (human). The assay is described as follows: indirect FACS, Daudi cells, FITC-GAH Fc 2nd Ab; none 3.1.
Assay [6] has the same target. The assay is described as follows: indirect FACS, Ramos cells, FITC-GAH Fc 2nd Ab; none 3.1.
Assay [7] addresses T1, CD20 on dog lymphocytes and dog lymphoma cells (dog). The assay is described as follows: flow cytometry, canine lymphoma aspirate 150836; none 3.2.
The target is the same in assay [8]. Kind of assay: flow cytometry, canine lymphoma aspirate 150836; none 4.5.
Assay [9] concerns the target T2, CD20 on human cells (human). The assay is described as follows: indirect FACS, Namalwa cells, FITC-GAH Fc 2nd Ab; none 2.5.
For assay [10] the target is unchanged. Kind of assay: indirect FACS, SU-DHL-6 cells, FITC-GAH Fc 2nd Ab; none 4.6.
For assay [11] the target is unchanged. Kind of assay: indirect FACS, WSU-FSCCL cells, FITC-GAH Fc 2nd Ab; none 2.6.
The target is the same in assay [12]. Kind of assay: indirect flow cytometry, RL cells, FITC-GAH Fc 2nd Ab; none 2.4.
The target is the same in assay [13]. The assay is described as follows: indirect flow cytometry, Raji cells, FITC-GAH Fc 2nd Ab; none 6.9.
Assay [14] has the same target. The assay is described as follows: indirect flow cytometry, Namalwa cells, FITC-GAH 2nd Ab; none 2.52.
Assay [15] shares this target. Kind of assay: indirect flow cytometry, Daudi cells, FITC-GAH Fc 2nd Ab; none 3.2.
The target is the same in assay [16]. The assay is described as follows: indirect flow cytometry, Ramos cells, FITC-GAH Fc 2nd Ab; none 3.1.
Assay [17] has the same target. The assay is described as follows: indirect flow cytometry, Namalwa cells, FITC-GAH Fc 2nd Ab; none 2.6.
For assay [18] the target is unchanged. Kind of assay: indirect flow cytometry, SU-DHL-6 cells, FITC-GAH Fc 2nd Ab; none 4.6.
Assay [19] shares this target. Kind of assay: indirect flow cytometry, WSU-FSCCL cells, FITC-GAH Fc 2nd Ab; none 2.7.
The target in assay [20] is human serum complement. The assay is described as follows: cell-based or functional assay. This is another data set of the same source.
Assay [21] has as its target HLA-DR (human leukocyte antigen-DR) on human lymphoma and leukemia cells and human lymphocytes (human). Kind of assay: indirect flow cytometry, Namalwa cells, FITC-GAM 2nd Ab; none 2.91; control antibody (anti-CEA).
The target of assay [22] is CD74 on human cells (human) (UniProt P04233). Kind of assay: 697 (ALL) cells; no mAb 4.9.
For assay [23] the target is unchanged. The assay is described as follows: REH (ALL) cells; no mAb 3.9.
Assay [24] has the same target. Kind of assay: K562 (CML) cells; no mAb 3.2.
Assay [25] has the same target. The assay is described as follows: MN60 (ALL) cells; no mAb 8.1.
The target is the same in assay [26]. Kind of assay: WAC (CLL) cells; no mAb 15.8.
Assay [27] has the same target. The assay is described as follows: MEC-1 (CLL) cells; no mAb 4.7.
The target is the same in assay [28]. The assay is described as follows: GDM-1 (AML) cells; no mAb 16.8.
The target is the same in assay [29]. Kind of assay: RS4;11 (ALL) cells; no mAb 6.4.
Assay [30] has the same target. Kind of assay: Jeko-1 (MCL) cells; no mAb 14.3.
Assay [31] shares this target. The assay is described as follows: Kasumi-3 (AML) cells; no mAb 9.6.
The target is the same in assay [32]. Kind of assay: Kasumi-1 (AML) cells; no mAb 18.2.
Assay [33] has the same target. The assay is described as follows: Granta-519 (MCL) cells; no mAb 15.3.
Assay [34] has the same target. The assay is described as follows: HC-1 (hairy cell leukemia) cells; no mAb 4.8.
Assay [35] concerns the target CD74 on dog lymphocytes and dog lymphoma cells (dog). The assay is described as follows: flow cytometry, dog lymphoma aspirate; none 3.37.
For assay [36] the target is unchanged. The assay is described as follows: flow cytometry, dog lymphoma aspirate; none 3.85.
For assay [37] the target is unchanged. Kind of assay: flow cytometry, canine lymphoma aspirate 150836; none 3.4.
The target is the same in assay [38]. The assay is described as follows: flow cytometry, canine lymphoma aspirate 150836; none 3.9.
The target in assay [39] is CD74 on human cells (human) (UniProt P04233). Kind of assay: indirect flow cytometry, Namalwa cells, FITC-GAM 2nd Ab; none 2.91.

Chain of CD74 on human cells (human) (P04233 whole entry): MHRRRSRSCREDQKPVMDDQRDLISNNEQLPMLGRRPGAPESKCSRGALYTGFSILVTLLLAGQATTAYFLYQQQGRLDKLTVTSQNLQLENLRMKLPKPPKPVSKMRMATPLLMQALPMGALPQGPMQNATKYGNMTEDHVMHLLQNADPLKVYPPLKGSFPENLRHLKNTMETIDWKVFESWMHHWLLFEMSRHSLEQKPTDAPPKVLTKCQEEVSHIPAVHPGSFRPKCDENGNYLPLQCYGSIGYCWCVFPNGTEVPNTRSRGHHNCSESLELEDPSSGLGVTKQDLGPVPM

B1: hA20 (veltuzumab, humanized anti-CD20 IgG1) (antibody, INN chains, looked up, V domains shown, part only)
VH: QVQLQQSGAEVKKPGSSVKVSCKASGYTFTSYNMHWVKQAPGQGLEWIGAIYPGMGDTSYNQKFKGKATLTADESTNTAYMELSSLRSEDTAFYYCARSTYYGGDWYFDVWGQGTTVTVSS
VL: DIQLTQSPSSLSASVGDRVTMTCRASSSVSYIHWFQQKPGKAPKPWIYATSNLASGVPVRFSGSGSGTDYTFTISSLQPEDIATYYCQQWTSNPPTFGGGTKLEIKR
In the assay with human serum complement [1], B1 had a complement-mediated cytotoxic effect on Daudi cells (CDC, resazurin viability), EC50 of 0.66 nM. The mean FL is 3.25 in assay [2] and 3.3 in assay [7]. Moreover, the results for the % Positive in assay [3] and in [8] were 3.96% and 4%, respectively. For the same molecule, the geometric mean fluorescence was determined as 267 in assay [4]; 241 in assay [5]; 204 in assay [6]; 10.1 in assay [9]; 1200 in assay [10]; 8.91 in assay [11]. For the same molecule, the geometric mean fluorescence in [12] is 128; in [13], 267; in assay [14] it was 6.28; in assay [15], 241; in assay [16], 204; in assay [17], 10.1. In addition, the geometric mean fluorescence in assay [18] worked out at 1200; in [19] it was 8.9.

B2: hL243 (humanized L243 anti-HLA-DR antibody, IgG1/K isotype) (antibody, V domains shown)
VH: QVQLQQSGSELKKPGASVKVSCKASGFTFTNYGMNWVKQAPGQGLKWMGWINTYTREPTYADDFKGRFAFSLDTSVSTAYLQISSLKADDTAVYFCARDITAVVPTGFDYWGQGSLVTVSS
VL: DIQLTQSPSSLSASVGDRVTITCRASENIYSNLAWYRQKPGKAPKLLVFAASNLADGVPSRFSGSGSGTDYTFTISSLQPEDIATYYCQHFWTTPWAFGGGTKLQIKR
Turning to B2, the complement-mediated cytotoxic effect on Daudi cells (CDC, resazurin viability), EC50 in the assay with human serum complement [20] turned out to be 2.6 nM.

B3: MN-14 (murine anti-carcinoembryonic antigen mAb) (antibody, from a related filing, V domains shown)
VH: EVKLLESGGGLVQSGGSLKLSCAASGFDFTTYWMSWVRQAPGKGLEWIGEIHPDSSTINYAPSLKDKFIVSRDNAKNTLYLQMSKVRSEDTALYYCASLYFGFPWFAYWGQGTPVTVSA
VL: EIQLTQSHKMMSTSVGDRVSITCKASQDVGTSVAWYQQRPGQSPKLLIYWTSTRHTGVPDRFTGSVSGTDFTLTITNVQSEDLADYFCQQYSLYRSFGGGTKLEIK
B3: in assay [21], the geometric mean fluorescence stood at 3.32.

B4: LL1 (murine anti-human CD74 mAb) (antibody, from a related filing, V domains shown)
VH: QIQLVQSGPELKKPGETVKVTCKTSGYTFTNYGVNWIKQTPGEGLQWMGWINPNTGEPTFDDDFKGRFAFSLESSASTAFLQISNLKNEDMGTYFCSRSRGKNEAWFAYWGQGTLVTVSE
VL: DVVMTQTPLSLPVSLGDQASISCRSSQSLVHRNGNTYLHWYLQKPGQSPKLLIYTVSNRFSGVPDRFSGSGSGTDFTLKISRVEAEDLGLYFCSQSSHVPPTFGAGTKLEI
Consider B4, for which the mean FL in [22] stood at 20.6; in assay [23], 61.1; in [24], 7; in [25], 25.9; in [26], 43.6; in [27], 44.7. Moreover, the mean FL in [28] was determined as 69.5; in assay [29], 24.3; in assay [30], 32.7; in assay [31] it was 18.4; in assay [32], 23.8; in assay [33], 50.8. The results for the mean FL in [34], in assay [35] and in assay [37] were 36.7, 4.01 and 4, respectively. Also, the % Positive in assay [36] turned out to be 6.69%; in [38] it was 6.7%. Further, the geometric mean fluorescence in assay [39] was found to be 17.3.
